Laboratory results from the Human Domainome abundance scans (Beltran et al. 2025).
± gives the uncertainty stated by the source.

B1: Cold shock protein CspB, residues 1 to 66; numbered along this chain, P41016 (parent)
chain: MQRGKVKWFNNEKGYGFIEVEGGSDVFVHFTAIQGEGFKTLEEGQEVSFEIVQGNRGPQAANVVKL

Variants of: B1
Assay: abundance fitness (aPCA) (normalised: wild type 0, dead -1); higher = more abundant; growth selection in yeast, the domain comes from the species named
Settings: Bacillus caldolyticus

Variant	abundance fitness
G14I	-0.902 ± 0.077
G14K	-0.06 ± 0.061
G14L	-0.24 ± 0.028
G14M	-0.202 ± 0.053
G14P	-0.91 ± 0.073
G14Q	-0.196 ± 0.044
G14R	-0.062 ± 0.031
G14S	-0.123 ± 0.029
G14T	-0.383 ± 0.039
G14V	-0.778 ± 0.04
G14Y	-0.445 ± 0.07
Y15A	-0.233 ± 0.052
Y15C	-0.186 ± 0.048
Y15D	-0.332 ± 0.072
Y15E	-0.188 ± 0.041
Y15F	-0.047 ± 0.05
Y15G	-0.285 ± 0.037
Y15H	-0.089 ± 0.072
Y15K	-0.189 ± 0.044
Y15L	-0.117 ± 0.026
Y15M	-0.138 ± 0.047
Y15N	-0.256 ± 0.054
Y15P	-0.885 ± 0.073
Y15Q	-0.19 ± 0.034

Variant	abundance fitness
Y15R	-0.227 ± 0.025
Y15S	-0.22 ± 0.028
Y15V	-0.155 ± 0.035
Y15W	0.023 ± 0.051
G16A	-0.696 ± 0.046
G16C	-0.861 ± 0.06
G16D	-0.927 ± 0.1
G16E	-1.16 ± 0.12
G16F	-0.937 ± 0.071
G16H	-1 ± 0.15
G16I	-0.911 ± 0.07
G16K	-1.08 ± 0.15
G16L	-0.901 ± 0.046
G16M	-0.965 ± 0.077
G16N	-0.98 ± 0.11
G16R	-1.08 ± 0.056
G16S	-1.01 ± 0.054
G16T	-0.954 ± 0.087
G16V	-0.847 ± 0.046
G16W	-1.18 ± 0.13
G16Y	-0.946 ± 0.099
F17A	-0.159 ± 0.039
F17C	-0.18 ± 0.052
F17D	-0.558 ± 0.072

Variant	abundance fitness
F17E	-0.172 ± 0.049
F17G	-0.236 ± 0.037
F17H	-0.151 ± 0.065
F17I	-0.128 ± 0.063
F17K	-0.138 ± 0.07
F17L	-0.171 ± 0.025
F17M	-0.139 ± 0.048
F17N	-0.171 ± 0.07
F17P	-0.977 ± 0.061
F17Q	-0.161 ± 0.042
F17R	-0.132 ± 0.032
F17S	-0.171 ± 0.029
F17T	-0.126 ± 0.053
F17V	-0.165 ± 0.027
F17W	-0.084 ± 0.042
F17Y	-0.192 ± 0.048
I18A	-0.272 ± 0.039
I18C	-0.164 ± 0.064
I18D	-1.08 ± 0.31
I18F	-0.297 ± 0.044
I18G	-1.07 ± 0.15
I18H	-0.812 ± 0.12
I18K	-0.926 ± 0.078
I18L	0.015 ± 0.031

Variant	abundance fitness
I18M	-0.208 ± 0.039
I18N	-0.85 ± 0.13
I18P	-1.19 ± 0.14
I18Q	-1.12 ± 0.14
I18T	-0.721 ± 0.048
I18W	-0.973 ± 0.07
I18Y	-1.07 ± 0.18
E19A	0.05 ± 0.052
E19C	0.021 ± 0.06
E19D	0.006 ± 0.072
E19F	-0.048 ± 0.05
E19G	0.023 ± 0.039
E19H	0.016 ± 0.073
E19I	-0.021 ± 0.059
E19K	0.031 ± 0.078
E19L	0.019 ± 0.033
E19M	0 ± 0.043
E19N	-0.003 ± 0.083
E19P	-0.316 ± 0.037
E19Q	0.009 ± 0.057
E19R	0.008 ± 0.037
E19S	0.016 ± 0.031
E19T	-0.029 ± 0.064
E19V	0.002 ± 0.044

Variant	abundance fitness
E19W	-0.011 ± 0.044
E19Y	-0.075 ± 0.057
V20A	-0.003 ± 0.035
V20D	-0.054 ± 0.054
V20E	-0.002 ± 0.043
V20F	-0.092 ± 0.056
V20H	0.094 ± 0.14
V20I	-0.014 ± 0.056
V20K	0.055 ± 0.056
V20L	0 ± 0.029
V20M	-0.018 ± 0.049
V20N	-0.028 ± 0.094
V20P	0.018 ± 0.041
V20Q	0.046 ± 0.057
V20R	-0.006 ± 0.053
V20S	-0.011 ± 0.035
V20T	0.008 ± 0.044
V20W	0.056 ± 0.064
V20Y	-0.001 ± 0.061
E21A	0.017 ± 0.048
E21D	-0.028 ± 0.076
E21F	-0.052 ± 0.054
E21G	0.02 ± 0.047
E21H	0.027 ± 0.052

Variant	abundance fitness
E21I	0.034 ± 0.069
E21K	-0.017 ± 0.066
E21M	-0.051 ± 0.069
E21Q	-0.007 ± 0.066
E21S	-0.009 ± 0.036
E21T	0.014 ± 0.055
E21V	0.013 ± 0.035
E21W	-0.033 ± 0.044
E21Y	-0.022 ± 0.042
G22C	0.02 ± 0.057
G22E	-0.013 ± 0.054
G22F	-0.016 ± 0.06
G22I	-0.027 ± 0.059
G22L	-0.012 ± 0.028
G22M	-0.01 ± 0.047
G22Q	-0.035 ± 0.058
G22R	-0.011 ± 0.034
G22S	0.011 ± 0.035
G22T	0.025 ± 0.048
G22V	-0.02 ± 0.033
G22W	-0.019 ± 0.036
G22Y	-0.063 ± 0.062
G23A	0.03 ± 0.046
G23C	0.029 ± 0.059

Variant	abundance fitness
G23D	0.026 ± 0.073
G23F	-0.034 ± 0.049
G23H	-0.053 ± 0.08
G23I	-0.041 ± 0.055
G23K	0.052 ± 0.057
G23L	-0.003 ± 0.027
G23M	0 ± 0.048
G23N	-0.066 ± 0.081
G23P	-0.011 ± 0.045
G23Q	0.012 ± 0.055
G23R	0.028 ± 0.037
G23S	0.011 ± 0.034
G23T	0.003 ± 0.052
G23V	-0.021 ± 0.038
G23W	-0.057 ± 0.04
G23Y	-0.061 ± 0.048
S24A	-0.011 ± 0.055
S24C	-0.029 ± 0.041
S24D	-0.002 ± 0.071
S24F	-0.025 ± 0.058
S24H	0.007 ± 0.072
S24I	-0.033 ± 0.081
S24K	0.015 ± 0.049
